We go through 6 molecules from patent US20120275996A1 (AbbVie / Abbott, published 2012).

The target of test [1] is T1, human IL-1α (human, UniProt P01583 113-271).
T1 construct: also called hIL-1α; recombinant purified human IL-1α
T1 sequence: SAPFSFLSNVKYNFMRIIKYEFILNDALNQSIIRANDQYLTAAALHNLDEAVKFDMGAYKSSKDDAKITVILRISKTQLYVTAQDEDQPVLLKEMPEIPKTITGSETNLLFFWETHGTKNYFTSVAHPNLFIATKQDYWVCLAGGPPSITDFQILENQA
Put plainly: ELISA; antibody captured by anti-human Fc, biotinylated antigen titrated. On the procedure:
Plates were washed five times in washing buffer (PBS containing 0.05% Tween 20), and blocked for 1 hour at 25° C. with 200 μl per well superblock blocking buffer (Thermo scientific, #37515). Blocking buffer was removed by tapping plates, and 2 μg/ml of each antibody in PBS containing 10% superblock, 0.5% tween-20 was added to the wells at 100 μl per well and incubated at 25° C. for 1 hour. The wells were washed five times in 1×PBST, and 1 μg/ml biotinylated antigen was titrated at 1:6 serial dilutions (for a range of μg to pg in PBS containing 10% superblock, 0.05% Tween 20). Each dilution of antigen was then added to the plates and incubated for 1 hour at 25° C. The wells were washed five times in 1XPBST and incubated for 1 hour at […]. with polyHRP streptavidin (KPL #474-3000, Gaithersburg, Md.). The wells were washed five times in 1XPBST, and 100 μl of ULTRA-TMB ELISA (Pierce, Rockford, Ill.) were added per well. Following color development the reaction was stopped with 1N HCL and absorbance at 450 nm is measured. The results are shown in Table 11 and the numerical value indicates binding of human anti-IL-1a antibodies to human IL-1α.

The target in test [2] is T1, human IL-1α. Description: cell-based or functional assay.
Test [3] has as its target T2, cynomolgus IL-1α (cynomolgus, UniProt P79340 113-271, limits assumed).
T2 sequence (looked up): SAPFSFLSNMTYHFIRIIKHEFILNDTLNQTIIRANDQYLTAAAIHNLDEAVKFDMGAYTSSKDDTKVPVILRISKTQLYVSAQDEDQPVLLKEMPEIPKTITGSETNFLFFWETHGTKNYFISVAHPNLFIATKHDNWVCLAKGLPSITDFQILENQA
Put plainly: cell-based or functional assay.

In test [4] the target is T1, human IL-1α. Description: SPR (Biacore 3000), antibody captured, antigen in solution, 25 °C. On the procedure: (§1) The BIACORE assay (Biacore, Inc, Piscataway, N.J.) determines the affinity of antibodies with kinetic measurements of on-, off-rate constants. Binding of antibodies to recombinant purified human IL-1α and cynomolgus IL-1α was determined by surface plasmon resonance-based measurements with a Biacore® 3000 instrument (Biacore® AB, Uppsala, Sweden) using running HBS-EP (10 mM HEPES [pH 7.4], 150 mM NaCl, 3 mM EDTA, and 0.005% surfactant P20) at 25° C. All chemicals were obtained from Biacore® AB (Uppsala, Sweden) or otherwise from a different source as described in the text. Approximately 5000 RU of goat anti-mouse IgG, (Fcγ), fragment specific polyclonal antibody (Pierce Biotechnology Inc, Rockford, Ill.) diluted in 10 mM sodium acetate (pH 4.5) was directly immobilized across a CM5 research grade biosensor chip using a standard amine coupling kit according to manufacturer's instructions and procedures at 25 μg/ml. Unreacted moieties on the biosensor surface were blocked with ethanolamine. Modified carboxymethyl dextran surface in flowcell 2 and 4 was used as a reaction surface. Unmodified carboxymethyl dextran without goat anti-mouse IgG in flow cell 1 and 3 was used as the reference surface. For kinetic analysis, rate equations derived from the 1:1 Langmuir binding model were fitted simultaneously to association and dissociation phases of all eight injections (using global fit analysis) with the use of Biaevaluation 4.0.1 software. Purified antibodies were diluted in HEPES-buffered saline for capture across goat anti-human IgG specific reaction surfaces. Antibodies to be captured as a ligand (25 μg/ml) were injected over reaction matrices at a flow rate of 5 μl/minute. The association and dissociation rate constants, kₒₙ (unit M⁻¹s⁻¹) and koff (unit s⁻¹) were determined under a continuous flow rate of 25 μl/min Rate constants were derived by making kinetic binding measurements at ten different antigen concentrations ranging from 10-200 nM. The equilibrium dissociation constant (unit M) of the reaction between antibodies and the target antigen was then calculated from the kinetic rate constants by the following formula: KD=koff/kₒₙ. Binding is recorded as a function of time and kinetic rate constants are calculated. In this assay, on-rates as fast as 10⁶M⁻¹s⁻¹ and off-rates as slow as 10⁻⁶ s⁻¹ can be measured.

Test [5] addresses T2, cynomolgus IL-1α. The description is as above. On the procedure: as §1

B1: 3D12-372-10 (antibody, V domains shown)
VH: EIQLVQSGAEVKKPGASVKVSCKASGYTFTNYGMNWVRQAPGQGLEWMGWINTYTGESTYADDFKGRFTFTLDTSTSTAYMELSSLRSEDTAVYFCARGIYYYGSSYAMDYWGQGTTVTVSS
VL: DIQMTQSPSSLSASVGDRVTITCRASQDISDMLNWYQQKPGKTPKLLIYHTSRLYSGVPSRFSGSGSGTDYTFTISSLQPEDIATYFCQQGKTLPPAFGQGTKLEIKR
notes: no constant regions are stated for this clone
Take B1: the EC50 with human IL-1α [1] was 0.0721 nM. The “Potency on hIL-1α (pM); inhibition of IL-1α induced hIL-8 production by MRC-5 cells” value (“Potency on hIL-1α (pM); inhibition” for short) in the test with human IL-1α [2] was 49.9 pM. Further, the “Potency on cyno IL-1α (pM); inhibition of IL-1α induced hIL-8 production by MRC-5 cells” value (shortened to “Potency on cyno IL-1α (pM); inhibition”) with cynomolgus IL-1α [3] was 49.2 pM.

B2: 3D12-372-15 (antibody, V domains shown)
VH: EIQLVQSGAEVKKPGASVKVSCKASGYTFTNYGMNWVRQAPGQDLEWMGWINTYTGESTYADDFKGRFTFTLDTSTSTAYMELSSLRSEDTAVYFCARGIYYYGSSYAMDYWGQGTTVTVSS
VL: DIQMTQSPSSLSASVGDRVTITCRASQDISNMLNWYQQKPGKTPKLLIYYTSRLYPGVPSRFSGSGSGTDYTFTISSLQPEDIATYFCQQGKTLPYAFGQGTKLEIKR
notes: as for B1
As to B2, in the test with human IL-1α [1], a half-maximal response (EC50) required 0.0742 nM. Further, the “Potency on hIL-1α (pM); inhibition” value with human IL-1α [2] came out at 38.6 pM.

B3: 3D12-362-10/372-10 (antibody, V domains shown)
VH: EVQLVQSGAEVKKPGVSVKVSCKASGYTFTTYGMHWVRQAPGQGLEWMGWINTYTGESTYADDFQGRVTFTLDTSTSTAYMELSSLRSEDTAVYFCARGIYYYGSSYAMNYWGQGTTVTVSS
VL: DIQMTQSPSSLSASVGDRVTITCRASQDISDMLNWYQQKPGKTPKLLIYHTSRLYSGVPSRFSGSGSGTDYTFTISSLQPEDIATYFCQQGKTLPPAFGQGTKLEIKR
In turn, B3 came in with an EC50 with human IL-1α [1] of 0.133 nM. Moreover, the “Potency on hIL-1α (pM); inhibition” value with human IL-1α [2] turned out to be 29.3 pM. The “Potency on cyno IL-1α (pM); inhibition” value with cynomolgus IL-1α [3] is 4.9 pM.

B4: 3D12-362-10 (antibody, V domains shown)
VH: EVQLVQSGAEVKKPGVSVKVSCKASGYTFTTYGMHWVRQAPGQGLEWMGWINTYTGESTYADDFQGRVTFTLDTSTSTAYMELSSLRSEDTAVYFCARGIYYYGSSYAMNYWGQGTTVTVSS
VL: DIQMTQSPSSLSASVGDRVTITCRASQDISNCLNWYQQKPGKTPKLLIYYTSRLHSGVPSRFSGSGSGTDYTFTISSLQPEDIATYFCQQGKTLPYAFGQGTKLEIKR
notes: no constant regions are stated for these clones; The humanized parents used human IgG1 with L234A/L235A and human kappa
As for B4, in the test with human IL-1α [1], the EC50 was determined as 0.0196 nM. In the test with human IL-1α [4], this molecule registered a Kd of 0.0528 nM, a koff of 8.38e-05 s⁻¹ and an association rate constant (kon) of 1.59e+06 M⁻¹ s⁻¹. In the test with cynomolgus IL-1α [5], this molecule came in with a Kd of 0.0135 nM, a koff of 2.19e-05 s⁻¹ and a kon of 1.63e+06 M⁻¹ s⁻¹. For the same molecule, the “Potency on hIL-1α (pM); inhibition” value with human IL-1α [2] is 4.8 pM. Also, the “Potency on cyno IL-1α (pM); inhibition” value with cynomolgus IL-1α [3] stood at 6.2 pM.

B5: 3D12.6 (antibody, V domains shown)
VH: EIQLVQSGSELKKPGASVKVSCKASGYTFTNYGMNWVRQAPGQDLERMAWINTYTGESTYADDFKGRFVFSLDTSVSTAYLQISSLKAEDTAVYFCARGIYYYGSSYAMDYWGQGTTVTVSS
VL: DIQMTQSPSSLSASVGDRVTITCRASQDISNCLNWYQQKPGKTPKLLIYYTSRLHSGVPSRFSGSGSGTDYTFTISSLQPEDIATYFCQQGKTLPYAFGQGTKLEIK
notes: Full-length humanized antibody; VH is fused to a human IgG1 constant region with L234A and L235A (EU numbering); also called VH H3D12VH.1A / VL H3D12VK.1C; VH3D12.6
In the case of B5, in the test with human IL-1α [4], the Kd amounted to 1.78 nM, the koff came out at 0.00206 s⁻¹ and the on-rate constant (kon) stood at 1.16e+06 M⁻¹ s⁻¹.

B6: 3D12.11 (antibody, V domains shown)
VH: EIQLVQSGAEVKKPGASVKVSCKASGYTFTNYGMNWVRQAPGQDLERMAWINTYTGESTYADDFKGRFTFTLDTSTSTAYMELSSLRSEDTAVYFCARGIYYYGSSYAMDYWGQGTTVTVSS
VL: DIQMTQSPSSLSASVGDRVTITCRASQDISNCLNWYQQKPGKTPKLLIYYTSRLHSGVPSRFSGSGSGTDYTFTISSLQPEDIATYFCQQGKTLPYAFGQGTKLEIK
notes: Full-length humanized antibody; VH is fused to a human IgG1 constant region with L234A and L235A (EU numbering); also called VH H3D12VH.2A / VL H3D12VK.1C; VH3D12.11
For B6, in the test with human IL-1α [4], the Kd stood at 0.665 nM, the koff amounted to 0.00108 s⁻¹ and the kon was 1.64e+06 M⁻¹ s⁻¹.
